Assay results published in patent USRE38424E1 (The United States of America as represented by the …, priority 1994, dated 2004).
Where two headings read alike, the source gives them in different places.

Details: for Duration of Neutropenia in Neutropenic Cycles, Median / Duration of Neutropenia in Neutropenic Cycles, Range / Nadirs in Neutropenic Cycles, Median / Nadirs in Neutropenic Cycles, Range / Duration of Neutropenia in Neutropenic Cycles, Mean / Nadirs in Neutropenic Cycles, Mean / Day of Onset of Neutropenia in Neutropenic Cycles, Median / Day of Onset of Neutropenia in Neutropenic Cycles, Range / Day of Onset of Neutropenia in Neutropenic Cycles, Mean / Nadir (all cycles), Median / Nadir (all cycles), Range / Nadir (all cycles), Mean: taxol 250 mg/m^2/21 days
Description: A total of 47 patients were included in this study. All patients had recurrent advanced stage epithelial ovarian cancer confirmed on histologic review at the Laboratory of Pathology, National Cancer Institute (NCI). Borderline, mixed, and germ cell histologies were excluded.
Pretreatment evaluation consisted of a physical examination, laboratory studies with CA-125, radiographic evaluation by CT scan, baseline electromyogram with nerve conduction velocity studies (EMG/NCV), creatinine clearance, chest radiograph, and EKG. On-study staging was completed within two weeks of starting therapy. Physical examination and laboratory evaluations were repeated with every cycle, except for CBC which was evaluated twice weekly. Patients underwent restaging every two cycles (i.e., every 6 weeks), which included the repetition of any radiographic studies that were abnormal upon entry. EMG/NCV studies were repeated as indicated to determine the presence of any progressive neurologic toxicity.
The G-CSF was supplied to the Division of Cancer Treatment by Amgen, Inc. (Thousand Oaks, Calif.). This G-CSF administration continued until the absolute granulocyte count of the patient was greater than 1500/μl for two consecutive days after the nadir (i.e., the total count for the two days was at least 3000/μl ) or until the total white blood cell count was greater than 30,000/μl. Patients with responding disease or stable disease continued on the study and were reevaluated at two cycle intervals.
Patients manifesting second or third degree heart block had remaining cycles given in the intensive care unit with appropriate interventions. Antiemetics were given as needed.
More specifically, this was undertaken by increasing the dose of G-CSF administered on the next treatment cycle.
The particulars pertaining to the flexible G-CSF dosage regimen are as follows. […] The dose of G-CSF was reduced by 5 μg/kg/day if severe bone pain occurred at these higher G-CSF dosage levels, i.e., at levels greater than or equal to 10 μg/kg/day.

B1: G-CSF: granulocyte colony-stimulating factor, available from Amgen, Inc. (protein, UniProt P09919 31-207, looked up)
Granulocyte …: TPLGPASSLPQSFLLKCLEQVRKIQGDGAALQEKLVSECATYKLCHPEELVLLGHSLGIPWAPLSSCPSQALQLAGCLSQLHSGLFLYQGLLQALEGISPELGPTLDTLQLDVADFATTIWQQMEELGMAPALQPTQGAMPAFASAFQRRAGGVLVASHLQSFLEVSYRVLRHLAQP
Duration of Neutropenia in Neutropenic Cycles, Median (10 μg/kg G-CSF, 49 cycles): 1 days | Duration of Neutropenia in Neutropenic Cycles, Range (10 μg/kg G-CSF, 49 cycles): 1 to 4 days | Nadirs in Neutropenic Cycles, Median (10 μg/kg G-CSF, 49 cycles): 162 | Nadirs in Neutropenic Cycles, Range (10 μg/kg G-CSF, 49 cycles): 0-494 | Duration of Neutropenia in Neutropenic Cycles, Mean (10 μg/kg G-CSF, 49 cycles, ± 0.7 on wrapped line): 1 days | Nadirs in Neutropenic Cycles, Mean (10 μg/kg G-CSF, 49 cycles, ± 158 on wrapped line): 178 | Day of Onset of Neutropenia in Neutropenic Cycles, Median (10 μg/kg G-CSF, 54 cycles): 7 days | Day of Onset of Neutropenia in Neutropenic Cycles, Range (10 μg/kg G-CSF, 54 cycles): 5 to 9 days | Day of Onset of Neutropenia in Neutropenic Cycles, Mean (10 μg/kg G-CSF, 54 cycles, ± 0.8 on wrapped line): 7 days | Nadir (all cycles), Median (10 μg/kg G-CSF, 130 cycles): 865 | Nadir (all cycles), Range (10 μg/kg G-CSF, 130 cycles): 0-6232 | Nadir (all cycles), Mean (10 μg/kg G-CSF, 130 cycles, ± 1636 on wrapped line): 1341 | Day of Onset of Neutropenia in Neutropenic Cycles, Median (20 μg/kg G-CSF, 20 cycles): 7 days | Day of Onset of Neutropenia in Neutropenic Cycles, Range (20 μg/kg G-CSF, 20 cycles): 6 to 11 days | Duration of Neutropenia in Neutropenic Cycles, Median (20 μg/kg G-CSF, 20 cycles): 1 days | Duration of Neutropenia in Neutropenic Cycles, Range (20 μg/kg G-CSF, 20 cycles): 1 to 5 days | Nadirs in Neutropenic Cycles, Median (20 μg/kg G-CSF, 20 cycles): 191 | Nadirs in Neutropenic Cycles, Range (20 μg/kg G-CSF, 20 cycles): 0-493 | Duration of Neutropenia in Neutropenic Cycles, Mean (20 μg/kg G-CSF, 20 cycles, ± 0.9 on wrapped line): 1 days | Day of Onset of Neutropenia in Neutropenic Cycles, Mean (20 μg/kg G-CSF, 20 cycles, ± 1.1 on wrapped line): 7 days | Nadirs in Neutropenic Cycles, Mean (20 μg/kg G-CSF, 20 cycles, ± 155 on wrapped line): 200 | Nadir (all cycles), Median (20 μg/kg G-CSF, 42 cycles): 626 | Nadir (all cycles), Range (20 μg/kg G-CSF, 42 cycles): 0-6536 | Nadir (all cycles), Mean (20 μg/kg G-CSF, 42 cycles, ± 1430 on wrapped line): 1204 | Patients in whom the G-CSF dose is poorly tolerated (in vivo): about 5% | Patients whose G-CSF doses were modified for bone pain (phase II): two | Bone Pain, G-CSF DR (dose reduction) (phase II, 47 patients): 3 (6) No. (%)
